Measured values from patent US20210130436A1 (published 2021).

Assays:
[1] = target: T1, human PD-L1 (huPD-L1), full-length, stably expressed on CHO cells (human, UniProt Q9NZQ7 19-290); assay: flow cytometry, CHO cells expressing huPD-L1
T1 construct: whole, on cells

[2] = target: T2, human CTLA4 (full-length, expressed on CHO cells) (human, UniProt P16410 36-223); assay: flow cytometry, CHO cells expressing huCTLA4, PE anti-human Fc
T2 construct: also called huCTLA4

[3] = target: T3, human PD-L1 (full-length, expressed on CHO cells) (human, UniProt Q9NZQ7 19-290); assay: flow cytometry, CHO cells expressing huPD-L1, PE anti-human Fc
T3 construct: also called huPD-L1; CD274
T3 sequence (Q9NZQ7 19-290): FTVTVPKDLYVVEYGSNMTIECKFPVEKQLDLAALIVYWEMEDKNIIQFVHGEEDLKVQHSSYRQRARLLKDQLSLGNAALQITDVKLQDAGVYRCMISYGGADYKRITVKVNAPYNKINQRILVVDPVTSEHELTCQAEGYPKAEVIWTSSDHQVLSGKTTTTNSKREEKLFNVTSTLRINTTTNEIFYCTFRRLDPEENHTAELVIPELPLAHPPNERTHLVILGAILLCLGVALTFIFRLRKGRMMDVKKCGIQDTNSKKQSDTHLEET

[4] = target: T3, human PD-L1 (full-length, expressed on …); assay: flow cytometry, MFI on CHO/huPD-L1 cells over MFI on Jurkat (CD28) cells, 33.3 nM
[5] = target: T4, CD28 (endogenously expressed on Jurkat/IL2 reporter cells) (human, UniProt P10747 19-220); assay: flow cytometry, Jurkat/IL2 reporter cells (endogenous CD28), PE anti-human Fc
T4 construct: Endogenous CD28 of Jurkat cells; also called human CD28

[6] = target: T4, CD28 (endogenously expressed on …); assay: flow cytometry MFI at 33.3 nM relative to WT CD80 ECD-Fc (R&D), Jurkat cells
[7] = target: T3, human PD-L1 (full-length, expressed on …); assay: flow cytometry MFI at 33.3 nM relative to WT CD80 ECD-Fc (R&D), CHO/huPD-L1 cells
[8] = target: T2, human CTLA4 (full-length, expressed on …); assay: flow cytometry MFI at 33.3 nM relative to WT CD80 ECD-Fc (R&D), CHO/huCTLA4 cells

T2 sequence (P16410 36-223): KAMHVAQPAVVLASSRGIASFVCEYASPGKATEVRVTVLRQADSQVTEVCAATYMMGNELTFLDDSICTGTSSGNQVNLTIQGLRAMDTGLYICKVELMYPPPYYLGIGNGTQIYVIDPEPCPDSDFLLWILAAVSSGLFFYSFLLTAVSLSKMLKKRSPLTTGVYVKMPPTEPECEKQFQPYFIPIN
T1 sequence (Q9NZQ7 19-290): as the sequence (Q9NZQ7 19-290) above

B1: variant CD80 IgV-Fc E35D/D46E/M47L/V68M/A71G/Y87C/K93R (Fc fusion, not shown: small tags and cut ends; a dimerising Fc or GST)
chain: VIHVTKEVKEVATLSCGHNVSVEELAQTRIYWQKDKKMVLTMMSGELNIWPEYKNRTIFDITNNLSIMILGLRPSDEGTYECVVLKCEKDAFRREHLAEVTLSVKAD
MFI at 33.3 nM [1]: 24300 MFI

B2: variant CD80 IgV-Fc E35D/M47I/V68M/Y87N (Fc fusion, not shown: small tags and cut ends; a dimerising Fc or GST)
chain: VIHVTKEVKEVATLSCGHNVSVEELAQTRIYWQKDKKMVLTMMSGDINIWPEYKNRTIFDITNNLSIMILALRPSDEGTYECVVLKNEKDAFKREHLAEVTLSVKAD
MFI at 33.3 nM [1]: 13100 MFI

B3: variant CD80 IgV-Fc H18Y/V20A/Q33L/E35D/M47V/Y53F (Fc fusion, not shown: a dimerising Fc or GST)
chain: VIHVTKEVKEVATLSCGYNASVEELAQTRIYWLKDKKMVLTMMSGDVNIWPEFKNRTIFDITNNLSIVILALRPSDEGTYECVVLKYEKDAFKREHLAEVTLSVKAD
MFI at 33.3 nM [2]: 2880 MFI
MFI at 33.3 nM [3]: 121000 MFI
Ratio of PDL1:CD28 [4]: 463 ratio
MFI at 33.3 nM [5]: 260 MFI
Fold change to WT [6]: 0.03 fold
Fold change to WT [7]: 15.2 fold
Fold change to WT CD80 [8]: 0.02 fold

B4: variant CD80 IgV-Fc Q27H/Q33L/E35D/M47V/N55D/L85Q/K89N (Fc fusion, not shown: a dimerising Fc or GST)
chain: VIHVTKEVKEVATLSCGHNVSVEELAHTRIYWLKDKKMVLTMMSGDVNIWPEYKDRTIFDITNNLSIVILALRPSDEGTYECVVQKYENDAFKREHLAEVTLSVKAD
MFI at 33.3 nM [2]: 56100 MFI
MFI at 33.3 nM [3]: 14800 MFI
Ratio of PDL1:CD28 [4]: 55 ratio
MFI at 33.3 nM [5]: 269 MFI
Fold change to WT [6]: 0.04 fold
Fold change to WT [7]: 1.86 fold
Fold change to WT CD80 [8]: 0.31 fold

B5: variant CD80 IgV-Fc Q33L/E35D/M47I/L85Q (Fc fusion, not shown: a dimerising Fc or GST)
chain: VIHVTKEVKEVATLSCGHNVSVEELAQTRIYWLKDKKMVLTMMSGDINIWPEYKNRTIFDITNNLSIVILALRPSDEGTYECVVQKYEKDAFKREHLAEVTLSVKAD
MFI at 33.3 nM [2]: 20500 MFI
MFI at 33.3 nM [3]: 63900 MFI
Ratio of PDL1:CD28 [4]: 222 ratio
MFI at 33.3 nM [5]: 287 MFI
Fold change to WT [6]: 0.04 fold
Fold change to WT [7]: 8.05 fold
Fold change to WT CD80 [8]: 0.11 fold

B6: variant CD80 IgV-Fc Q33L/E35D/M47I/T62N/L85Q (Fc fusion, not shown: a dimerising Fc or GST)
chain: VIHVTKEVKEVATLSCGHNVSVEELAQTRIYWLKDKKMVLTMMSGDINIWPEYKNRTIFDINNNLSIVILALRPSDEGTYECVVQKYEKDAFKREHLAEVTLSVKAD
MFI at 33.3 nM [2]: 1660 MFI
MFI at 33.3 nM [3]: 72600 MFI
Ratio of PDL1:CD28 [4]: 256 ratio
MFI at 33.3 nM [5]: 284 MFI
Fold change to WT [6]: 0.04 fold
Fold change to WT [7]: 9.14 fold
Fold change to WT CD80 [8]: 0.01 fold

B7: variant CD80 IgV-Fc V22A/E23D/Q33L/E35D/M47V (Fc fusion, not shown: a dimerising Fc or GST)
chain: VIHVTKEVKEVATLSCGHNVSADELAQTRIYWLKDKKMVLTMMSGDVNIWPEYKNRTIFDITNNLSIVILALRPSDEGTYECVVLKYEKDAFKREHLAEVTLSVKAD
MFI at 33.3 nM [2]: 3640 MFI
MFI at 33.3 nM [3]: 75500 MFI
Ratio of PDL1:CD28 [4]: 275 ratio
MFI at 33.3 nM [5]: 274 MFI
Fold change to WT [6]: 0.04 fold
Fold change to WT [7]: 9.51 fold
Fold change to WT CD80 [8]: 0.02 fold

B8: variant CD80 IgV-Fc Y31S/E35D/M47L/T79L/E88G (Fc fusion, not shown: a dimerising Fc or GST)
chain: VIHVTKEVKEVATLSCGHNVSVEELAQTRISWQKDKKMVLTMMSGDLNIWPEYKNRTIFDITNNLSIVILALRPSDEGLYECVVLKYGKDAFKREHLAEVTLSVKAD
MFI at 33.3 nM [2]: 1100 MFI
MFI at 33.3 nM [3]: 38900 MFI
Ratio of PDL1:CD28 [4]: 140 ratio
MFI at 33.3 nM [5]: 278 MFI
Fold change to WT [6]: 0.04 fold
Fold change to WT [7]: 4.9 fold
Fold change to WT CD80 [8]: 0.01 fold
